Measurements taken from the DeepSol protein solubility set.

Experiment: soluble on expression in E. coli; label from the status in PepcDB or PDB records

Row | Sequence | soluble on expression in E. coli
1 | AHHHHHHGSLEVQGISKKWKDFHLKDISFSVMDGEYFIVLGPSGAGKTVLLEIIAGIIPPDGGKVLLDGKDITLLPPEKRGIAYVPQNYALFPNMSVFDNIAFGLKVRRVPRSEIEKRVLEISEVLGIRHLLHRKPRTLSGGEQQRVAVARALVIEPEIILLDEPFANLDVQIRSRLINEMKRWRRELGFTAIHVTHSFEEALALGDRVGIMLNGKLVQVGEIREVFSRPNSEEVAKFLGFENIIEGIADGRVLHVGKLRIELPLEAKGRVRIGIRPEDILISTERIKTSARNVFKAKVEAIEDVGPLVKLTLNVCDITLRAFITRSSLVELGIEEGKEVYASFKASAIHVF | soluble
2 | AHHHHHHGSLKLSDFIPLTMLREGETGVVVDIQSGVNARGKLLSMGITPGVRVRMIKSRKPGPVIIGIGSSKIALGWGIASKIIVRRE | not soluble
3 | AHHHHHHGSRYVKLPKENTYEFLERLKDWGKLYAPVKISDKFYDFREIDDVRKIEFHYNRTIMPPKKFFFKPREKLFEFDISKPEYREVIEEVEPFIIFGVHACDIYGLKILDTVYLDEFPDKYYKVRREKGIIIGISCMPDEYCFCNLRETDFADDGFDLFFHELPDGWLVRVGTPTGHRLVDKNIKLFEEVTDKDICAFRDFEKRRQQAFKYHEDWGNLRYLLELEMEHPMWDEEADKCLACGICNTTCPTCRCYEVQDIVNLDGVTGYRERRWDSCQFRSHGLVAGGHNFRPTKKDRFRNRYLCKNAYNEKLGLSYCVGCGRCTAFCPANISFVGNLRRILGLEENKCPPTVSEEIPKRGFAYSSNIRGDGV | not soluble
4 | AHHHHHHGSSIKIELFGITFENPLILASGVVDMTPELLRRAHKEGAGGVVTKSIGIEPRKGYDNPTVVEVPCGLINAMGLPNPGWKAFLEEFEKESFDFPVIVSIFGGNPEEFAFLAEKLERVGDAFELNLSCPHAKGYGLEIGQDPENVYRVVKAVKDVTDKPVIAKLTPNTSDITKLGLAAEKAEADGVSAINTLKAIAIDIYAKRPILSNKFGGYSGPGIKPIALRAVYDLASKLDIPIIGIGGITTWQDAVEFLLAGASAVQIGTAVYLKGFSVFREIAEGIRKYLEEEGFSSVKEIIGLAQKV | soluble
5 | AHHHHHHGSSKDRMVELLQEHFELNLYEARAYVALVAFGVLTPAELASVSEVPAPRTYDVLRSLEKKGFAMTQPGKTNKYRPVHPANVLEKFIQDWQERVKEELEAKKKAKEELLELMAPLIETEVPKYGVERVWVVRGIKNSTLKTKEMLEEAQNEILLADDGFIAVNLEDDIIKAVDRGVKTKILLTKNLLPRLKASKIIDYAKEGKLELRALDKFDLPMLICDEEVFFALEDLAARYFNYETQVWIKDHRVVALFKEKFNEYWEKAEKV | soluble
6 | AHHHHHHGSSLGGSADDTYLHEIIKKAYEAGIVIVAAAGNEGASSPSYPAAYPEVIAVGATDINDQVPYWSNRQPEVSAPGVDILSTYPDDTYETLSGTSMATPHVSGVVALIQAAYYLKYGKVLPVGTFDDMSTNTVRGILHLAVDDLGDPGWDIYYGYGIIRADKAIQLALF | not soluble
7 | AHHHHHHGSTKRVKVITDPEVIKVMLEDTRRKILQLLRNREMTISQLSEILGKMPQTIYHHIEKLKEAGLVEVKRTEMKGNLVEKYYGRTADVFYINLYMGDEELRYLARSRLKTKLDIFKKLGYKFDEEELLNVMDRILEKEHEVKVEISKEIENVEDSLKEFSNEDIIHAIEWLAMARLAQDEEYIELVKKLGQILKR | soluble
8 | AHHHHHHGSTKVYIENYGCARNRADGEIMAGLLLSSGYEIVEGEENADIVVVNSCAVKDPTEVKIARRIRELLDRGKKVIVTGCLPHVNPDAIDERVSAVLGVKSIDRIVQAVEYALRGEKLISVPDWRKRNLDKLDFPRLSPRGVHFILPIAEGCLNGCTYCATRSARGVLKSYSPEKIVEWVKWAIRQGYKEIWLSAEDTGCYGFDIGTNLAKLLDEITAIEGEFRIRVGMMNPNHVLKFLDELIEAYKDEKVYKFLHLPVQSGDNEILRRMGRTYTVEEFEEIVNAFRREFPDLNLHTDIIVGFPGESEEAFQRSLELIKRIKPDKVNVSRYSPRPGTIAAKWKQLPGWVVKERSRIMHRVRLQISYEINQRYVGRKVDILVHGEGKKGNVDAVTMNYKHIIIPRGEKGEFARAKVNGATSTYLLGEIVD | not soluble
9 | AHHHHHHGSTQKKLIEYTNPSTSRRKITRIPIDSPDYPPLLKQIKDPPKIIYAIGNVRLLNKPAVAIVGTRQPSERGEYYAEKVAEFYAKQGFVIVSGLALGIDSIVIKTALKTGAHVIGVLPSPVNDIVPKSNEKLAEKIIRSGGLLISELPEGTKPKKYHFVRRNRIISGISFAVVVIESELKDGTMHTVKFAKQQRRIILVTNLPASGNAKLKNEGFPILDF | soluble
10 | AIAAKDILGEAGLHFDELNKLRVLDPEVTQQTIELKEECKDFVDKIGQFQKIVGGLIELVDQLAKEAENEKMKAIGARNLLKSIAKQREAQQQQLQALIAEKKMQLERYRVEYEALCKVEAEQNEFIDQFIFQK | soluble
11 | AIAASALEQFVNNVRQLSAQGQMTQLCELINKSGELLAKNLSHLDTVLGALDIQEHSLGVLAVLFVKFSMPNIPDFETLFSQVQLFISTCNGEHIRYATDTFAGLCHQLTNALVERKQPLRGISILKQAIDKMQMNTNQLTSVHADLCQLCLLAKCFKPAVPFLELDMMDICKENGAYDAKHFLCYYYYGGMIYTGLKNFERALYFFEQAITTPAMAVSHIMLEAYKKYILVSLILHGKVQQLPKYTSQIVGRFIKPLSNAYHELAQIYATNNPAELRALVNKHSETFTRDNNSGLVKQCLSSLYKKNIQRLTKTFLTLSLQDMASRVQLSGPQEAEKYVLHMIEDGEIYASINQKDGMVCFHDNPEKYNNPAMLHKIDQEML | soluble
12 | AIAESTKSNDIPILRNVSDSFSDHYGKYLQRCGIFVPKDGDSSGPDAYVVFHNGQTRYVVAFSFTFYHKTEFSKRDIEKEAEQFFQEVISVLNDGSPSSVQLCFQFVVVCTRYDRSVVFSSEEQNIVEDASYLVTEHSAGSTLNESRRSCLQLVVVSQRNLERFLGRENFDILRKIGKASREEFRKDFSVWCKTVFESMSDEYVSPLEAKPFNVTLRVARNIRPRTNEENRMQMEGFQTAMQVEEGNTRGEQRVAASSSLSSSFDWNTFLREYCGLSEEDVAYCLPKVEDIDMDELPAVTKEILRDLGIDKPALRLKIRSSIRSYLANER | soluble
13 | AIAGANEDQEMELEALRSIYEGDNSFRELSPVSFQYRIGEDGDPKAFLIEVSWTETYPQTAPVISMNAFFNNTISSAVKQSILAKLQEAVEVNLGTAMTYTLFEYAKDHKEQFMENHHPGNSATPVANIISVETPTTAPSSKKKEKKEQLSKAQKRKLADKTDHKGELPRGWNWVDVVKHLSKTGSKDDE | soluble
14 | AIANDEYYLELSENPVQFENASSVNNVFFDEANKQVFAVRSGGATGVVVKGPDDKSSVAFRMDDKGEVKCIKFSLGNKILAVQRTTKSVDFINFIPDYPHLEFSHECKTKNASILGFCWTNWNEIVFVTDQGIEFYQVLPDKRTLKLLKSQSINVNWYIYCPETAVLLLSTTVQGNVLQPFAFKTATMSKMSKFEIELPAVPKPAKLSLSERDIAVATIYDQLYVMYLKHHSRTTNSPGAEVVLYHLPREGTCKRTNVLRLNTTGKFAINVVDNLVVVHHQTTQTSLIYDIKLRELDGNVNVHQPVLPARSINPFKIPLTGPAAAPSQAPLPCELYSSSWSVFQPDIIISASEGFLWYLQVKLQPTLNLLQDKGKLMDFLLRRRDCKMVILSVCSQMLIGGDKGNLSVVATVFDKLNQVYKEYLDAEQAYTAVNEQNSCFTLYLANTYNNM | soluble
15 | AIAPTGEDNIVVPPAFDGESVSKNKEIYVTFGVDVDAVAGWLGSYGGEDSPFDISRGICAAEVGVPRLLELFRRFDLKTTWFLPGHSVESFPLQMRQVVAAGHEVGAHGYSHENPVRMTPKQEEDVLALSVQILENLTGKKPKGYVAPWWELSAATPELLLRYGFKYDHSQGHHDFQPYYARTAEKWTNIDYSKPARDWMKPLDRGQSVDLVEIPANWYVDDLPPMMFIKSAPNSHGFMNPRDIEDLWRDQFEWVYREYNFAVFPITIHPDVSGRPQVLLMLERFISYIRRFPGVHWTTMEEVAQIFRNKQPFLNA | soluble
16 | AIATDSASLQFVSPYAFEAMQKVDVARLAALSDPELRLLLPCLVRMALCAPADQSNAWAQDKKLILRLLSGVEAVNSIVALLSVDFHALEQDARKEQQLRHKAGGSNGESILVSQLQHGLTLEFEHSDPLRRLRLALSELLAIMNKVQCPFIYSCIGMLIRVIFPTGAH | soluble
17 | AIAVGHKYPVKCLEVDKSKGRLVVSHRRAMAERQMEHLKTGALVEGTVQGVKPYGVFVDVFGTSGLLHISQISHDQVANIQSLFLPGEKVKCMVVSFDKQRGRISLSTKALEPHPGDMLRNKQLVYEKAEEMALSYNQRMDSPVRSKNTTSSSTDDIIAGLDIGSLDDLDPILFGTHTNSSNSNTHSDHLKQDSMNGTIPESDI | soluble
18 | AIWRSRSFDEAIEMFRESLYSAKNEVIVVTPSEFFETIREDLIKTLERGVTVSLYIDKIPDLSEFKGKGNFFVRQFYKLNHLIGMTDGKEVVTIQNATFDSIGPPSFKSTYPEIIFSQYSLIIEIFKESTLEKEIIGNPKDIRFFAMFHAVDFVKNHLKNRNIYAEITGKNLESGRLETLTGRVVGYTLSLREAVNNIHLETENGVVKVGGMFAVIEDYESTEIKFIMGGSRS | soluble
19 | AKGEVWEAKPVGAAALPQWIRGRLDKIGLGIEADALALFAERVEGNLLAARQEIDKLGLLYPKGHTVNIDEAQTAVANVARFDAFQLAGAWMKGDVLRVCRLLDGLREEGEEPVLLLWAVAEDVRTLIRLAAALKQGQSIQSVRNSLRLWGDKQTLAPLAVKRISVVRLLDALKTCAQIDRIIKGAEDGDAWTVFKRLVVSLAE | soluble
20 | AKIYDKNGELVKTLDNGQRHEHVNIKDVPKDMKNAVLATEDNRFYQHGALDYKRLFGAIGKNLTGGFGSQGASTLTQQVVKDSFLTQQKSIGRKAQEAYLSYRLEQEYSKDEIFQVYMNKIYYSDGVTGIKAAAKYYFNKDMKDLNLAEEAYLAGLPQVPNLYNIYNNP | not soluble
21 | AKPIDVSRLDLRIGCIITARKHPDADSLYVEEVDVGEIAPRTVVSGLVNHVPLEQMQNRMVILLCNLKPAKMRGVLSQAMVMCASSPEKIEILAPPNGSVPGDRITFDAFPGEPDKELNPKKKIWEQIQPDLHTNDECVATYKGVPFEVKGKGVCRAQTMSNSGIKLEHHHHHH | soluble
22 | AKRYWNANLDTYHPKNVSQNRALLTIRVFVHNFNPEEGKGLTFVGSPGVGKTHLAVATLKAIYEKKGIRGYFFDTKDLIFRLKHLMDEGKDTKFLKTVLNSPVLVLDDLGSERLSDWQRELISYIITYRYNNLKSTIITTNYSLQREEESSVRISADLASRLGENVVSKIYEMNELLVIKGSDLR | soluble
23 | AKVQAYVSDEIVYKINKIVERRRAEGAKSTDVSFSSISTMLLELGLRVYEAQMER | soluble
24 | ALQAAADIDTVVFDLNGTLTQGKMVVKSLHITDKKYLRPIALLESQSDHPVAKIIKSYMEQQDTASTEPLEITSIDKSHHSGMKGIINGEVFIIGNKDMLAANGITSIDKPYDNPEKGSVYIVRGTTVIGQIALIDPLREDAIATVKQLKRLGKSVHICTGADQATAEKYAALLGIPKDNICANTVGAVTKKGEVSKTSYIQQLKQKGFKVAMVGDAANDATAIAYSDIGIAVKSSIGDSITEQHAGIVVQQGLLFPIATAFDVAQKTKQNIFQNLFVSLSYNSIIT | not soluble
25 | ALQNKEEEKKKVKKLQKSYFDVLGICCTSEVPIIENILKSLDGVKEYSVIVPSRTVIVVHDSLLISPFQIAKALNEARLEANVRVNGETSFKNKW | soluble
